Target: T1, hNE (Homo sapiens, UniProt P08246)
T1 sequence (P08246 30-267): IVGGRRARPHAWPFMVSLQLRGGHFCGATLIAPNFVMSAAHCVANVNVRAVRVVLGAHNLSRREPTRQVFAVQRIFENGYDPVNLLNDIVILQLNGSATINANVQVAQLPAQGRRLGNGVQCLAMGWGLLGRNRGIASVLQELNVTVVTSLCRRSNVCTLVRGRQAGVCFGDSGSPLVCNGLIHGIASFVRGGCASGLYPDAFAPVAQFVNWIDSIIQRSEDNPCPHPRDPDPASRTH
Assay: hNE inhibition, hydrolysis of fluorogenic substrate (Ki; standard hNE-inhibition assay)
Type: biochemical
Design: concentration or dose not given beside the values
Method: Inhibition constants for the proteins reacting with hNE (Ki) were determined using RT measurements of hydrolysis of a fluorogenic substrate (N-methoxysuccinyl-Ala-Ala-Pro-Val-7-amino-4-methylcoumarin, Sigma M-9771) by hNE. For these measurements, aliquots of the appropriately diluted inhibitor stocks were added to 2 ml solutions of 0.847 nM hNE in reaction buffer (50 mM Tris-Cl, pH=8.0, 150 mM NaCl, 1 mM CaCl2, 0.25% Triton-X-100) in plastic fluorescence cuvettes. The reactions were incubated at RT for 30 minutes. At the end of the incubation period, the fluorogenic substrate was added at a concentration of 25 μM and the time course for increase in fluorescence at 470 nm (excitation at 380 nm) due to enzymatic substrate cleavage was recorded using a spectrofluorimeter (Perkin-Elmer 650-15) and strip chart recorder. […] Ki is related to Kapparent by Ki=Kapparent×(1/(1+(S0/Km))). The correction is small compared to the possible errors in Kapparent. Rates of enzymatic substrate cleavage were determined from the linear slopes of the recorded increases in fluorescence. The percent residual activity of hNE in the presence of the inhibitor was calculated as the percentage of the rate of fluorescence increase observed in the presence of the inhibitor to that observed when no added inhibitor was present.
We recorded data used to determine Ki for EPI-HNE-2 and EPI-HNE-3 reacting with hNE. Data obtained as described above are recorded as percent residual activity plotted as a function of added inhibitor. Values for Ki and for active inhibitor concentration in the stock are obtained from a least-squares fit program.

EPI-HNE-3: ITI-D2(3-58) with R15I, I18F, Q19P, L20R; SEQ ID NO 026 (AACNLPIVRGPCIAFFPRWAFDAVKGKCVLFPYGGCQGNGNKFYSEKECREYCGVP; Epi-HNE-3)
Percent residual hNE activity (10. μl of EPI-HNE-3 solution added): 81.6%
Percent residual hNE activity (20. μl of EPI-HNE-3 solution added): 66.9%
Percent residual hNE activity (30. μl of EPI-HNE-3 solution added): 53.4%
Percent residual hNE activity (40. μl of EPI-HNE-3 solution added): 38.0%
Percent residual hNE activity (50. μl of EPI-HNE-3 solution added): 27.6%
Percent residual hNE activity (55. μl of EPI-HNE-3 solution added): 21.5%
Percent residual hNE activity (60. μl of EPI-HNE-3 solution added): 13.0%
Percent residual hNE activity (65. μl of EPI-HNE-3 solution added): 11.0%
Percent residual hNE activity (70. μl of EPI-HNE-3 solution added): 7.9%
Percent residual hNE activity (75. μl of EPI-HNE-3 solution added): 3.8%
Percent residual hNE activity (80. μl of EPI-HNE-3 solution added): 3.3%
Percent residual hNE activity (85. μl of EPI-HNE-3 solution added): 2.1%
Percent residual hNE activity (90. μl of EPI-HNE-3 solution added): 1.8%
Percent residual hNE activity (100. μl of EPI-HNE-3 solution added): 1.6%
Percent residual hNE activity (110. μl of EPI-HNE-3 solution added): 0.8%
Percent residual hNE activity (120. μl of EPI-HNE-3 solution added): 0.7%
Percent residual hNE activity (160. μl of EPI-HNE-3 solution added): 0.6%
Percent residual hNE activity (200. μl of EPI-HNE-3 solution added): 0.2%

EPI-HNE-2: EPI-HNE-1 with four additional residues EAEA at the amino terminus, SEQ ID NO 008
Percent residual hNE activity (10. μl of EPI-HNE-2 solution added): 82.9%
Percent residual hNE activity (20. μl of EPI-HNE-2 solution added): 71.8%
Percent residual hNE activity (30. μl of EPI-HNE-2 solution added): 59.5%
Percent residual hNE activity (40. μl of EPI-HNE-2 solution added): 46.2%
Percent residual hNE activity (50. μl of EPI-HNE-2 solution added): 39.2%
Percent residual hNE activity (55. μl of EPI-HNE-2 solution added): 32.2%
Percent residual hNE activity (60. μl of EPI-HNE-2 solution added): 22.5%
Percent residual hNE activity (65. μl of EPI-HNE-2 solution added): 23.5%
Percent residual hNE activity (70. μl of EPI-HNE-2 solution added): 15.0%
Percent residual hNE activity (75. μl of EPI-HNE-2 solution added): 10.4%
Percent residual hNE activity (80. μl of EPI-HNE-2 solution added): 8.6%
Percent residual hNE activity (85. μl of EPI-HNE-2 solution added): 4.8%
Percent residual hNE activity (90. μl of EPI-HNE-2 solution added): 1.4%
Percent residual hNE activity (95. μl of EPI-HNE-2 solution added): 2.0%
Percent residual hNE activity (100. μl of EPI-HNE-2 solution added): 2.5%
Percent residual hNE activity (120. μl of EPI-HNE-2 solution added): 0.2%
Percent residual hNE activity (150. μl of EPI-HNE-2 solution added): 0.2%
Percent residual hNE activity (200. μl of EPI-HNE-2 solution added): 0.04%

Reference: US20060134087A1, “ITI-D1 Kunitz domain mutants as hNE inhibitors” (Dyax Corp., priority 1988, published 2006)
